From paper PMC8826744 (2022) come the findings set out here.

One may read the koff as the first-order rate constant of dissociation. As a reminder, the Kd is the equilibrium constant for the complex coming apart.

Assay [1] has as its target T1, recombinant furin, biotinylated (UniProt P09958 27-794, biotin). As to the kind of experiment: BLI. (BLI is a label-free optical method that tracks binding on a fibre tip over time.)
Assay [2] concerns the target T1, recombinant furin, biotinylated. Nature of the assay: BLI. The source holds these as a separate data set.

T1 sequence (P09958 108-715): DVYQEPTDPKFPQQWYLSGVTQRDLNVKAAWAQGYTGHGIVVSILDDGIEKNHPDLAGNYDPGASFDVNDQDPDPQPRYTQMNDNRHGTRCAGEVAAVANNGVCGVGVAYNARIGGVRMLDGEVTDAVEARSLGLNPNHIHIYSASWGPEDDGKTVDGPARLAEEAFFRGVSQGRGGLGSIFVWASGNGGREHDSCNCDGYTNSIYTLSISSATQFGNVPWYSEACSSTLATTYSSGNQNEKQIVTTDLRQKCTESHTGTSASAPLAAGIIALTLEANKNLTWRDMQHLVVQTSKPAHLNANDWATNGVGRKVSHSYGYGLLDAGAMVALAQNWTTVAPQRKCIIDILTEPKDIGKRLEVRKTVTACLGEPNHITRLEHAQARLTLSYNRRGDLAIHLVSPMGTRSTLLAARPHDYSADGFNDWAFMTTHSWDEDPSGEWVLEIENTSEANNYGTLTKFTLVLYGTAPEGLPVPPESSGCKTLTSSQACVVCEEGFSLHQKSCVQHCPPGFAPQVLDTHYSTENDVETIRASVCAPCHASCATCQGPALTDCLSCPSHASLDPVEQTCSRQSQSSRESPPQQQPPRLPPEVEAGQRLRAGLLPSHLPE

B1: farletuzumab-FuG1 (antibody, V domains shown)
VH: EVQLVESGGGVVQPGRSLRLSCSASGFTFSGYGLSWVRQAPGKGLEWVAMISSGGSYTYYADSVKGRFAISRDNAKNTLFLQMDSLRPEDTGVYFCARHGDDPAWFAYWGQGTPVTVSS
VL: DIQLTQSPSSLSASVGDRVTITCSVSSSISSNNLHWYQQKPGKAPKPWIYGTSNLASGVPSRFSGSGSGTDYTFTISSLQPEDIATYYCQQWSSYPYMYTFGQGTKVEIK
In the case of B1, in assay [1], the koff worked out at 8.65e-05 s⁻¹. In addition, the Kd in assay [2] worked out at 33 nM.

B2: farletuzumab-cFuG1 (antibody, V domains shown)
VH: B1 VH
VL: B1 VL
Take B2: the koff in assay [1] is 0.000312 s⁻¹. Besides, the dissociation constant (Kd) in assay [2] amounted to 7.5 nM.
